# B1: Synaptotagmin-1 (Rattus norvegicus (Rat)), P21707 (parent)
# chain: MVSASHPEALAAPVTTVATLVPHNATEPASPGEGKEDAFSKLKQKFMNELHKIPLPPWALIAIAIVAVLLVVTCCFCVCKKCLFKKKNKKKGKEKGGKNAINMKDVKDLGKTMKDQALKDDDAETGLTDGEEKEEPKEEEKLGKLQYSLDYDFQNNQLLVGIIQAAELPALDMGGTSDPYVKVFLLPDKKKKFETKVHRKTLNPVFNEQFTFKVPYSELGGKTLVMAVYDFDRFSKHDIIGEFKVPMNTVDFGHVTEEWRDLQSAEKEEQEKLGDICFSLRYVPTAGKLTVVILEAKNLKKMDVGGLSDPYVKIHLMQNGKRLKKKKTTIKKNTLNPYYNESFSFEVPFEQIQKVQVVVTVLDYDKIGKNDAIGKVFVGYNSTGAELRHWSDMLANPRRPIAQWHTLQVEEEVDAMLAVKK
# Variants of: B1
# Details: with cac1b_rat Cacna1b
row,Variant,effect of a mutation on the interaction
1,K326A;K327A,decreasing interaction

# Variants of: B1
# Details: with ap2a2_rat Ap2a2, P18484
# Sequence of ap2a2_rat Ap2a2, P18484 (P18484 whole entry): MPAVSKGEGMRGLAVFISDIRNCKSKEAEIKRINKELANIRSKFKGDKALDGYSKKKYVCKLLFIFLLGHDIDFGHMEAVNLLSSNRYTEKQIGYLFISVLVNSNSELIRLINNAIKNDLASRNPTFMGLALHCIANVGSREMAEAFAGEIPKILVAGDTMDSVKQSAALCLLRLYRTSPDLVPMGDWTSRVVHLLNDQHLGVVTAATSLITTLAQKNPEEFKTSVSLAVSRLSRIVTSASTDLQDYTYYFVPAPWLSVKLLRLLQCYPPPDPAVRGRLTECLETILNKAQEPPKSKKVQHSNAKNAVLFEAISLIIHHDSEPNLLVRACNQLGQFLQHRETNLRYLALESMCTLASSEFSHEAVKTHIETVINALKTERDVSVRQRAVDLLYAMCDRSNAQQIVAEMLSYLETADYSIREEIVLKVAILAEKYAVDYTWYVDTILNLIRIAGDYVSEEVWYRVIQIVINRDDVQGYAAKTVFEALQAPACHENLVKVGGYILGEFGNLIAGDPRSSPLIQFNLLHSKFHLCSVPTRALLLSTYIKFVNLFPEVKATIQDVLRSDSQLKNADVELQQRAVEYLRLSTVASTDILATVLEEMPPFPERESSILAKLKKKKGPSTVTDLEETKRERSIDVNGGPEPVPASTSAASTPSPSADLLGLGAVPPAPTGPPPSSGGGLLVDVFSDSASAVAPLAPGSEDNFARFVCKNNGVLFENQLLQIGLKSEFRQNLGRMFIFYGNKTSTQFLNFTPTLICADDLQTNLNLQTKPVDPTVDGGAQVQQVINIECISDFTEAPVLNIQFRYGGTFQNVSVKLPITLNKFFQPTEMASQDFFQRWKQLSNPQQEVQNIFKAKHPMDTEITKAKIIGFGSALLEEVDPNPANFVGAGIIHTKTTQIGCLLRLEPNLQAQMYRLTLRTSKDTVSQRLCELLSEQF
row,Variant,effect of a mutation on the interaction
1,K326A;K327A,decreasing interaction

# Reference: IntAct's records for PubMed 9830048
